According to patent US11135246B2, “Peptides and combination of peptides for use in immunotherapy against leukemias and other cancers” (Immatics Biotechnologies GmbH, priority 2017, dated 2021):

molecular target: HLA-A*01:01 (Homo sapiens, UniProt P04439, A114D/A174V/A182V/D101N/D185E/E176A/E190D/L180R/Q94H/R68K/S129P/T187R/V100A/V91M/W191G); assay: MHC binding assay, UV-ligand exchange with β2m ELISA, HLA-A*01:01; conditions: peptide exchange yield
From the text: (§1) Candidate peptides for T cell based therapies according to the present invention were further tested for their MHC binding capacity (affinity). The individual peptide-MHC complexes were produced by UV-ligand exchange, where a UV-sensitive peptide is cleaved upon UV-irradiation, and exchanged with the peptide of interest as analyzed. Only peptide candidates that can effectively bind and stabilize the peptide-receptive MHC molecules prevent dissociation of the MHC complexes. To determine the yield of the exchange reaction, an ELISA was performed based on the detection of the light chain (β2m) of stabilized MHC complexes. The assay was performed as generally described in Rodenko et al. (Rodenko et al., 2006).
(§2) 96 well MAXISorp plates (NUNC) were coated over night with 2 ug/ml streptavidin in PBS at room temperature, washed 4× and blocked for 1 h at 37° C. in 2% BSA containing blocking buffer. Refolded HLA-A*02:01/MLA-001 monomers served as standards, covering the range of 15-500 ng/ml. Peptide-MHC monomers of the UV-exchange reaction were diluted 100-fold in blocking buffer. Samples were incubated for 1 h at 37° C., washed four times, incubated with 2 ug/ml HRP conjugated anti-β2m for 1 h at 37° C., washed again and detected with TMB solution that is stopped with […]. Absorption was measured at 450 nm. Candidate peptides that show a high exchange yield (preferably higher than 50%, most preferred higher than 75%) are generally preferred for a generation and production of antibodies or fragments thereof, and/or T cell receptors or fragments thereof, as they show sufficient avidity to the MHC molecules and prevent dissociation of the MHC complexes.

Row | Peptide exchange | Substance
1 | “++++” (>75% = ++++) | 1 (LTEGHSGNYY; listed as Homo sapiens) [compound 1]
2 | “++” (>20% = ++) | 3 (YINPAKLTPY; listed as Homo sapiens) [compound 3]
3 | “+++” (>50 =+++) | 4 (ALDQNKMHY; listed as Homo sapiens) [compound 4]
4 | “+++” (>50 =+++) | 5 (GTDVLSTRY; listed as Homo sapiens) [compound 5]
5 | “++++” (>75% = ++++) | 6 (VTEGVAQTSFY; listed as Homo sapiens) [compound 6]
6 | “+” (>10% = +) | 7 (FMDSESFYY; listed as Homo sapiens) [compound 7]
7 | “++++” (>75% = ++++) | 8 (STDSAGSSY; listed as Homo sapiens) [compound 8]
8 | “++” (>20% = ++) | 9 (YSHPQYSSY; listed as Homo sapiens) [compound 9]
9 | “++” (>20% = ++) | 10 (YSDIGHLL; listed as Homo sapiens) [compound 10]
10 | “+++” (>50 =+++) | 11 (AAADHHSLY; listed as Homo sapiens) [compound 11]
11 | “+++” (>50 =+++) | 12 (ATDIVDSQY; listed as Homo sapiens) [compound 12]
12 | “++++” (>75% = ++++) | 13 (ITDIHIKY; listed as Homo sapiens) [compound 13]
13 | “++” (>20% = ++) | 14 (TFDLTVVSY; listed as Homo sapiens) [compound 14]
14 | “++” (>20% = ++) | 15 (SVADIRNAY; listed as Homo sapiens) [compound 15]
15 | “++” (>20% = ++) | 16 (WIGDKSFEY; listed as Homo sapiens) [compound 16]
16 | “+++” (>50 =+++) | 188 (YVDAGTPMY; listed as Homo sapiens) [compound 188]
17 | “++++” (>75% = ++++) | 189 (VTEEPQRLFY; listed as Homo sapiens) [compound 189]
18 | “++” (>20% = ++) | 190 (HVDQDLTTY; listed as Homo sapiens) [compound 190]
19 | “+++” (>50 =+++) | 191 (ISEAGKDLLY; listed as Homo sapiens) [compound 191]
20 | “+++” (>50 =+++) | 192 (RSDPGGGGLAY; listed as Homo sapiens) [compound 192]
21 | “+++” (>50 =+++) | 193 (LTDSEKGNSY; listed as Homo sapiens) [compound 193]
22 | “+++” (>50 =+++) | 194 (YTDKKSIIY; listed as Homo sapiens) [compound 194]
23 | “++++” (>75% = ++++) | 195 (YSDKEFAGSY; listed as Homo sapiens) [compound 195]
24 | “+++” (>50 =+++) | 196 (FTDIDGQVY; listed as Homo sapiens) [compound 196]

molecular target: HLA-A*02:01 (Homo sapiens, UniProt P04439, D140Y/D185E/D98H/E176V/E277Q/G131W/G231S/I119V/I121R/I166T/I218V/L300P/L318F/N151K/N90K/P208A/P217A/Q86G/Q94H/R138H/R169H/T345S); assay: MHC binding assay, UV-ligand exchange with β2m ELISA, HLA-A*02:01; conditions: peptide exchange yield
From the text: as §1, §2

Row | Peptide exchange | Substance
25 | “+++” (>50 = +++) | 17 (KAYNRVIFV; listed as Homo sapiens) [compound 17]
26 | “++++” (>75% = ++++) | 18 (YLLPSVVLL; listed as Homo sapiens) [compound 18]
27 | “++++” (>75% = ++++) | 19 (SLFEGIYTI; listed as Homo sapiens) [compound 19]
28 | “++” (>20% = ++) | 20 (FSLEDLVRI; listed as Homo sapiens) [compound 20]
29 | “++++” (>75% = ++++) | 21 (FLFDKLLLI; listed as Homo sapiens) [compound 21]
30 | “+++” (>50 = +++) | 22 (ILHAQTLKI; listed as Homo sapiens) [compound 22]
31 | “++” (>20% = ++) | 23 (FAFSGVLRA; listed as Homo sapiens) [compound 23]
32 | “++++” (>75% = ++++) | 24 (KLGPVAVSI; listed as Homo sapiens) [compound 24]
33 | “++++” (>75% = ++++) | 25 (YLNEKSLQL; listed as Homo sapiens) [compound 25]
34 | “++++” (>75% = ++++) | 26 (SLYVQQLKI; listed as Homo sapiens) [compound 26]
35 | “++++” (>75% = ++++) | 27 (RLIAKEMNI; listed as Homo sapiens) [compound 27]
36 | “++++” (>75% = ++++) | 197 (SLADVHIEV; listed as Homo sapiens) [compound 197]
37 | “+++” (>50 = +++) | 198 (KLLGYDVHV; listed as Homo sapiens) [compound 198]
38 | “++++” (>75% = ++++) | 199 (AMPDSPAEV; listed as Homo sapiens) [compound 199]
39 | “+++” (>50 = +++) | 200 (VMLQINPKL; listed as Homo sapiens) [compound 200]
40 | “+++” (>50 = +++) | 201 (ILAAVETRL; listed as Homo sapiens) [compound 201]
41 | “++++” (>75% = ++++) | 203 (FLLPKVQSI; listed as Homo sapiens) [compound 203]
42 | “+++” (>50 = +++) | 204 (FLLPKVQSIQL; listed as Homo sapiens) [compound 204]
43 | “++++” (>75% = ++++) | 205 (FLINTNSEL; listed as Homo sapiens) [compound 205]
44 | “+++” (>50 = +++) | 206 (SLMDLQERL; listed as Homo sapiens) [compound 206]
45 | “++++” (>75% = ++++) | 207 (KLSDNILKL; listed as Homo sapiens) [compound 207]

molecular target: HLA-A*03:01 (Homo sapiens, UniProt P04439); assay: MHC binding assay, UV-ligand exchange with β2m ELISA, HLA-A*03:01; conditions: peptide exchange yield
From the text: as §1, §2

Row | Peptide exchange | Substance
46 | “+++” (>50 = +++) | 221 (LLNRHILAH; listed as Homo sapiens) [compound 221]

molecular target: HLA-A*24:02 (Homo sapiens, UniProt P04439, D101N/D140Y/D185E/E176V/E190D/F33S/G103R/G107R/I119L/I121M/I306V/K335N/L105A/L180Q/L300P/N151K/N90K/Q86E/Q94H/R106L/R138H/R89G/T104I/T345S/V100E/W191G/Y123F); assay: MHC binding assay, UV-ligand exchange with β2m ELISA, HLA-A*24:02; conditions: peptide exchange yield
From the text: as §1, §2

Row | Peptide exchange | Substance
47 | “++++” (>75% = ++++) | 53 (KYIEYYLVL; listed as Homo sapiens) [compound 53]
48 | “++++” (>75% = ++++) | 55 (IFVARLYYF; listed as Homo sapiens) [compound 55]
49 | “+++” (>50 = +++) | 56 (KYSSGFRNI; listed as Homo sapiens) [compound 56]
50 | “++++” (>75% = ++++) | 57 (RFPPTPPLF; listed as Homo sapiens) [compound 57]
51 | “++++” (>75% = ++++) | 58 (KYLADLPTL; listed as Homo sapiens) [compound 58]
52 | “++++” (>75% = ++++) | 61 (IFKEHNFSF; listed as Homo sapiens) [compound 61]
53 | “++++” (>75% = ++++) | 62 (YYLSHLERI; listed as Homo sapiens) [compound 62]
54 | “+++” (>50 = +++) | 63 (IYFSNTHFF; listed as Homo sapiens) [compound 63]
55 | “++” (>20% = ++) | 64 (SFQSKATVF; listed as Homo sapiens) [compound 64]
56 | “+++” (>50 = +++) | 67 (VFLPSEGFNF; listed as Homo sapiens) [compound 67]
57 | “++++” (>75% = ++++) | 68 (LYQDRFDYL; listed as Homo sapiens) [compound 68]
58 | “+++” (>50 = +++) | 69 (EYNTIKDKF; listed as Homo sapiens) [compound 69]
59 | “+++” (>50 = +++) | 70 (LYSDIGHLL; listed as Homo sapiens) [compound 70]
60 | “++++” (>75% = ++++) | 71 (RYLGKNWSF; listed as Homo sapiens) [compound 71]
61 | “+++” (>50 = +++) | 72 (TYVENLRLL; listed as Homo sapiens) [compound 72]
62 | “++++” (>75% = ++++) | 73 (TYPQLEGFKF; listed as Homo sapiens) [compound 73]
63 | “++++” (>75% = ++++) | 74 (SYADNILSF; listed as Homo sapiens) [compound 74]
64 | “+++” (>50 = +++) | 75 (RFYLLTEHF; listed as Homo sapiens) [compound 75]
65 | “+++” (>50 = +++) | 222 (RYLDEINLL; listed as Homo sapiens) [compound 222]
